Measurements taken from patent US20250320303A1 (SHENGHE CHINA BIOPHARMACEUTICAL, published 2025).

T1: human W3785-hProl.ECD.His (Human-TNFR2-His) protein (human, UniProt P20333 23-257)
T1 construct: extracellular domain; not shown: His tag
T1 sequence (looked up): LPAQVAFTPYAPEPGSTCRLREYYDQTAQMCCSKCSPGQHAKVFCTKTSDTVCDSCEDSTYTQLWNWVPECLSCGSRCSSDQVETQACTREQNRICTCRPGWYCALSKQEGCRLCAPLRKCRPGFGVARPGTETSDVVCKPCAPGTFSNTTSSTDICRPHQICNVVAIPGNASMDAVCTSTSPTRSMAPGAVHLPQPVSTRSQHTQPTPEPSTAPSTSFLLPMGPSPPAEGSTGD


Legend:
[1] = target: T1, human W3785-hProl.ECD.His …; assay: BLI (Octet Red96e), antibody on AHC sensor, Human-TNFR2-His in solution, multiple concentrations
[2] = target: T1, human W3785-hProl.ECD.His …; assay: indirect ELISA on coated Human-TNFR2-His
Method: (1) Coating: Human-TNFR2-His was diluted to 0.5 μg/mL with coating solution (1×PBS, pH 7.4), and coated into a 96-well ELISA plate at 100 μL/well at 4° C. overnight. The coating solution was poured off, and the plate was washed with 1×PBST at 300 μL per well, washed with a plate cleaning instrument for 4 times, and patted dry on sheet paper. [0184] (2) Blocking: it was blocked with 3% non-fat dry milk at 300 μL/well, and incubated at 37° C. for 1 h. The blocking solution was poured off, washed by a plate cleaning instrument for 4 times, and patted dry on sheet paper. [0185] (3) Sample dilution: the reference product and the test product were diluted with 3% non-fat dry milk to 10 μg/mL, and this was used as the initial concentration for 3-fold dilution with a total of 11 gradients of dilution, and another one blank well was set up, and only diluent was added. It was incubated at 100 μL/well at 37° C. for 1 h. Liquid in the wells was discarded, washed by a plate cleaning instrument for 4 times, and patted dry on the sheet paper. [0186] (4) Addition of enzyme-labeled secondary antibody: Peroxidase-conjugated AffiniPure F(ab′)2 Fragment Goat Anti-Human IgG was diluted with 3% non-fat dry milk at 1:20,000. It was incubated at 100 μL/well at 37° C. for 1 h. It was washed by a plate cleaning instrument for 6 times and patted dry on sheet paper. […] (5) Color development: TMB color development solution was added at 100 μL/well and wrapped with aluminium foil, and the color was developed at 37° C. without light for 8 min. [0188] (6) Termination of color development: terminal solution 1 M HCl was added to terminate the color development reaction at 100 μL/well. [0189] (7) Reading at 450 nm on the enzyme labeler. [0190]

Kd [1] [nM]	koff [1] [s⁻¹]	kon [1] [M⁻¹ s⁻¹]	EC50 [2] [µg/mL]	Binder
0.0863	0.000102	1.21e+06	0.0135	Antibody 12 (antibody, V domains shown, detected with anti-human IgG and captured on AHC sensors) VH: QVQLVQSGAEVKKPGASVKVSCKASGYTFTDYIIHWVRQAPGQGLEWMGWIDPDYGNTDYADKFKKRVTMTADTSISTAFMELSRLRSDDTAVYYCARDDGSPLVMDAWGQGTLVTVSS VL: DIQMTQSPSSLSASVGDRVTITCQGSQNIDNYLAWFQQKPGKAPKLLIYSTYSLQTGVPSRFSGSRSGTDFTLTISSLQPEDFATYFCFQYNNGYMFGGGTKLELK
0.117	0.000134	1.15e+06	0.00496	Antibody 13 (antibody, V domains shown, detected with anti-human IgG and captured on AHC sensors) VH: QVQLVQSGAEVKKPGASVKVSCKASGYTFTDYIIHWVRQAPGQGLEWMGWIDPDYGNTDYADKFKKRVTMTADTSISTAFMELSRLRSDDTAVYYCARDDGSPLVMDAWGQGTLVTVSS VL: DIQMTQSPSSLSASVGDRVTITCNGAQNIDNYLAWFQQKPGKAPKLLIYSTYSLQTGVPSRFSGSRSGTDFTLTISSLQPEDFATYFCFQYNNGYMFGGGTKLELK
2.06	–	–	0.0032	Antibody 15 (antibody, V domains shown, detected with anti-human IgG and captured on AHC sensors) VH: QVQLVQSGAEVKKPGASVKVSCKASGYTFTDYIIHWVRQAPGQGLEWMGWIDPDYGNTDYADKFKKRVTMTADTSISTAFMELSRLRSDDTAVYYCARDDASPLVMDAWGQGTLVTVSS VL: DIQMTQSPSSLSASVGDRVTITCQGSQNIDNYLAWFQQKPGKAPKLLIYSTYSLQTGVPSRFSGSRSGTDFTLTISSLQPEDFATYFCFQYNNGYMFGGGTKLELK
0.133	0.000124	933000	0.0149	Antibody 17 (antibody, V domains shown, detected with anti-human IgG and captured on AHC sensors) VH: QVQLVQSGAEVKKPGASVKVSCKASGYTFTDYIIHWVRQAPGQGLEWMGWIDPDYGNTDYADKFKKRVTMTADTSISTAFMELSRLRSDDTAVYYCARDEGSPLVMDAWGQGTLVTVSS VL: DIQMTQSPSSLSASVGDRVTITCQGSQNIDNYLAWFQQKPGKAPKLLIYSTYSLQTGVPSRFSGSRSGTDFTLTISSLQPEDFATYFCFQYNNGYMFGGGTKLELK
1.48	0.00127	862000	–	Antibody 19 (antibody, V domains shown, captured on AHC sensors) VH: QVQLVQSGAEVKKPGASVKVSCKASGYTFTDYIIHWVRQAPGQGLEWMGWIDPDYGNTDYADKFKKRVTMTADTSISTAFMELSRLRSDDTAVYYCARDDASPLVMDAWGQGTLVTVSS VL: DIQMTQSPSSLSASVGDRVTITCQGSQNIDNYLAWFQQKPGKAPKLLIYSTYSLQTGVPSRFSGSRSGTDFTLTISSLQPEDFATYFCFQYNQGYMFGGGTKLELK
0.117	0.000134	1.15e+06	0.0203	Antibody 16 (antibody, V domains shown, detected with anti-human IgG and captured on AHC sensors) VH: QVQLVQSGAEVKKPGASVKVSCKASGYTFTDYIIHWVRQAPGQGLEWMGWIDPDYGNTDYADKFKKRVTMTADTSISTAFMELSRLRSDDTAVYYCARDEGSPLVMDAWGQGTLVTVSS VL: DIQMTQSPSSLSASVGDRVTITCNGSQNIDNYLAWFQQKPGKAPKLLIYSTYSLQTGVPSRFSGSRSGTDFTLTISSLQPEDFATYFCFQYNNGYMFGGGTKLELK
3.03	0.00282	931000	0.00375	Antibody 14 (antibody, V domains shown, detected with anti-human IgG and captured on AHC sensors) VH: QVQLVQSGAEVKKPGASVKVSCKASGYTFTDYIIHWVRQAPGQGLEWMGWIDPDYGNTDYADKFKKRVTMTADTSISTAFMELSRLRSDDTAVYYCARDDASPLVMDAWGQGTLVTVSS VL: DIQMTQSPSSLSASVGDRVTITCNGSQNIDNYLAWFQQKPGKAPKLLIYSTYSLQTGVPSRFSGSRSGTDFTLTISSLQPEDFATYFCFQYNNGYMFGGGTKLELK
0.0638	6.22e-05	974000	–	Antibody 18 (antibody, V domains shown, captured on AHC sensors) VH: QVQLVQSGAEVKKPGASVKVSCKASGYTFTDYIIHWVRQAPGQGLEWMGWIDPDYGNTDYADKFKKRVTMTADTSISTAFMELSRLRSDDTAVYYCARDDGSPLVMDAWGQGTLVTVSS VL: DIQMTQSPSSLSASVGDRVTITCQGSQNIDNYLAWFQQKPGKAPKLLIYSTYSLQTGVPSRFSGSRSGTDFTLTISSLQPEDFATYFCFQYNQGYMFGGGTKLELK
0.766	0.000371	484000	–	Antibody 23 (antibody, V domains shown, captured on AHC sensors) VH: EVQLVQSGAEVKKPGATVKISCKVSGYSITDYLLHWVQQAPGKGLEWMGWIDPEEGKTKYGQKFQSRVTITADTSTDTAYMELSSLRSEDTAVYYCAANSGTGTMDAWGQGTLVTVSS VL: DIVMTQSPATLSVSPGERATLSCKASQNVGSNVDWYQQKPGQSPRVLIYKASIRYTGIPARFSGSGSGTEFTLTISILQSEDFAVYFCMQSKSYPITFGQGTKLEIK
0.537	0.00077	1.44e+06	–	Antibody 27 (antibody, V domains shown, captured on AHC sensors) VH: EVQLVQSGAEVKKPGATVKISCKVSGYSITDYLLHWVQQAPGKGLEWMGWIDPEDAKTKYGQKFQSRVTITADTSTDTAYMELSSLRSEDTAVYYCAAQSGTGTMDAWGQGTLVTVSS VL: DIVMTQSPATLSVSPGERATLSCKASQNVGSNVDWYQQKPGQSPRVLIYKASIRYTGIPARFSGSGSGTEFTLTISILQSEDFAVYFCMQSKSYPITFGQGTKLEIK
< 0.001	< 1e-07	225000	–	Antibody 28 (antibody, V domains shown, captured on AHC sensors) VH: EVQLVQSGAEVKKPGATVKISCKVSGYSITDYLLHWVQQAPGKGLEWMGWIDPEDAKTKYGQKFQSRVTITADTSTDTAYMELSSLRSEDTAVYYCAANSATGTMDAWGQGTLVTVSS VL: DIVMTQSPATLSVSPGERATLSCKASQNVGSNVDWYQQKPGQSPRVLIYKASIRYTGIPARFSGSGSGTEFTLTISILQSEDFAVYFCMQSKSYPITFGQGTKLEIK
0.152	0.000109	718000	–	Antibody 24 (antibody, V domains shown, captured on AHC sensors) VH: EVQLVQSGAEVKKPGATVKISCKVSGYSITDYLLHWVQQAPGKGLEWMGWIDPEDAKTKYGQKFQSRVTITADTSTDTAYMELSSLRSEDTAVYYCAANSGTGTMDAWGQGTLVTVSS VL: DIVMTQSPATLSVSPGERATLSCKASQNVGSNVDWYQQKPGQSPRVLIYKASIRYTGIPARFSGSGSGTEFTLTISILQSEDFAVYFCMQSKSYPITFGQGTKLEIK
1.39	0.00193	1.39e+06	–	Antibody 25 (antibody, V domains shown, captured on AHC sensors) VH: EVQLVQSGAEVKKPGATVKISCKVSGYSITDYLLHWVQQAPGKGLEWMGWIDPEEGKTKYGQKFQSRVTITADTSTDTAYMELSSLRSEDTAVYYCAAQSGTGTMDAWGQGTLVTVSS VL: DIVMTQSPATLSVSPGERATLSCKASQNVGSNVDWYQQKPGQSPRVLIYKASIRYTGIPARFSGSGSGTEFTLTISILQSEDFAVYFCMQSKSYPITFGQGTKLEIK
0.0551	1.41e-05	256000	–	Antibody 26 (antibody, V domains shown, captured on AHC sensors) VH: EVQLVQSGAEVKKPGATVKISCKVSGYSITDYLLHWVQQAPGKGLEWMGWIDPEEGKTKYGQKFQSRVTITADTSTDTAYMELSSLRSEDTAVYYCAANSATGTMDAWGQGTLVTVSS VL: DIVMTQSPATLSVSPGERATLSCKASQNVGSNVDWYQQKPGQSPRVLIYKASIRYTGIPARFSGSGSGTEFTLTISILQSEDFAVYFCMQSKSYPITFGQGTKLEIK
0.177	0.000145	821000	0.0147	Antibody 21 (antibody, V domains shown, detected with anti-human IgG and captured on AHC sensors) VH: EVQLVESGGGLVKPGGSLRLSCAASGFTFSNAWMGWVRQAPEKGLEWVGQIKDKSNNYPTYYAESVKGRFTISRDDSKNTLYLQMNSLKTEDTAVYYCTTYGDFFDYWGQGTLVTVSS VL: DIQMTQSPSSLSASVGDRVTITCRASEDIYNALAWYQQKPGKVPKLLLYNANSLHTGVPSRFSGSGSGTDYTLTISSLQPEDFATYFCQQYYDHPLTFGQGTKLEIK
0.33	0.000165	500000	0.0137	Antibody 22 (antibody, V domains shown, detected with anti-human IgG and captured on AHC sensors) VH: EVQLVESGGGLVKPGGSLRLSCAASGFTFSNAWMGWVRQAPEKGLEWVGQIKDKSNNYPTYYAESVKGRFTISRDDSKNTLYLQMNSLKTEDTAVYYCTTYGDFFDYWGQGTLVTVSS VL: DIQMTQSPSSLSASVGDRVTITCRASEDIYQGLAWYQQKPGKVPKLLLYNANSLHTGVPSRFSGSGSGTDYTLTISSLQPEDFATYFCQQYYDHPLTFGQGTKLEIK
